Reference: patent publication US20060263802A1 (CRUCELL HOLLAND B V, published 2006)

Columns and labels:
Assay in all cases: PEPSCAN ELISA, looped peptide, 10 ug/ml
[1] = biological target: looped/cyclic peptide … (rabies virus strain ERA)
[2] = biological target: looped/cyclic peptide … (rabies virus strain ERA); remark: listed apart in the source
[3] = biological target: looped/cyclic peptide … (rabies virus strain ERA); remark: listed apart in the source
[4] = biological target: looped/cyclic peptide … (rabies virus strain ERA); remark: listed apart in the source
[5] = biological target: looped/cyclic peptide … (rabies virus strain ERA); remark: listed apart in the source
[6] = biological target: looped/cyclic peptide … (rabies virus strain ERA); remark: listed apart in the source
[7] = biological target: looped/cyclic peptide … (rabies virus strain ERA); remark: listed apart in the source
[8] = biological target: looped/cyclic peptide … (rabies virus strain ERA); remark: listed apart in the source
[9] = biological target: looped/cyclic peptide … (rabies virus strain ERA); remark: listed apart in the source
[10] = biological target: looped/cyclic peptide … (rabies virus strain ERA); remark: listed apart in the source
[11] = biological target: looped/cyclic peptide … (rabies virus strain ERA); remark: listed apart in the source
[12] = biological target: looped/cyclic peptide … (rabies virus strain ERA); remark: listed apart in the source
[13] = biological target: looped/cyclic peptide … (rabies virus strain ERA); remark: listed apart in the source
[14] = biological target: looped/cyclic peptide … (rabies virus strain ERA); remark: listed apart in the source
[15] = biological target: looped/cyclic peptide … (rabies virus strain ERA); remark: listed apart in the source
[16] = biological target: looped/cyclic peptide … (rabies virus strain ERA); remark: listed apart in the source
[17] = biological target: looped/cyclic peptide … (rabies virus strain ERA); remark: listed apart in the source
[18] = biological target: looped/cyclic peptide … (rabies virus strain ERA); remark: listed apart in the source
[19] = biological target: looped/cyclic peptide … (rabies virus strain ERA); remark: listed apart in the source
[20] = biological target: looped/cyclic peptide … (rabies virus strain ERA); remark: listed apart in the source
[21] = biological target: looped/cyclic peptide … (rabies virus strain ERA); remark: listed apart in the source
[22] = biological target: looped/cyclic peptide … (rabies virus strain ERA); remark: listed apart in the source
[23] = biological target: looped/cyclic peptide … (rabies virus strain ERA); remark: listed apart in the source
[24] = biological target: looped/cyclic peptide … (rabies virus strain ERA); remark: listed apart in the source
[25] = biological target: looped/cyclic peptide … (rabies virus strain ERA); remark: listed apart in the source
[26] = biological target: looped/cyclic peptide … (rabies virus strain ERA); remark: listed apart in the source
[27] = biological target: looped/cyclic peptide … (rabies virus strain ERA); remark: listed apart in the source
[28] = biological target: looped/cyclic peptide … (rabies virus strain ERA); remark: listed apart in the source
[29] = biological target: looped/cyclic peptide … (rabies virus strain ERA); remark: listed apart in the source
[30] = biological target: looped/cyclic peptide … (rabies virus strain ERA); remark: listed apart in the source
[31] = biological target: looped/cyclic peptide … (rabies virus strain ERA); remark: listed apart in the source
[32] = biological target: looped/cyclic peptide … (rabies virus strain ERA); remark: listed apart in the source
[33] = biological target: looped/cyclic peptide … (rabies virus strain ERA); remark: listed apart in the source
[34] = biological target: looped/cyclic peptide … (rabies virus strain ERA); remark: listed apart in the source
[35] = biological target: looped/cyclic peptide … (rabies virus strain ERA); remark: listed apart in the source
[36] = biological target: looped/cyclic peptide … (rabies virus strain ERA); remark: listed apart in the source
[37] = biological target: looped/cyclic peptide … (rabies virus strain ERA); remark: listed apart in the source
[38] = biological target: looped/cyclic peptide … (rabies virus strain ERA); remark: listed apart in the source
[39] = biological target: looped/cyclic peptide … (rabies virus strain ERA); remark: listed apart in the source
[40] = biological target: looped/cyclic peptide … (rabies virus strain ERA); remark: listed apart in the source
[41] = biological target: looped/cyclic peptide … (rabies virus strain ERA); remark: listed apart in the source
[42] = biological target: looped/cyclic peptide … (rabies virus strain ERA); remark: listed apart in the source
[43] = biological target: looped/cyclic peptide … (rabies virus strain ERA); remark: listed apart in the source
[44] = biological target: looped/cyclic peptide … (rabies virus strain ERA); remark: listed apart in the source
[45] = biological target: looped/cyclic peptide … (rabies virus strain ERA); remark: listed apart in the source
[46] = biological target: looped/cyclic peptide … (rabies virus strain ERA); remark: listed apart in the source
[47] = biological target: looped/cyclic peptide … (rabies virus strain ERA); remark: listed apart in the source
[48] = biological target: looped/cyclic peptide … (rabies virus strain ERA); remark: listed apart in the source
[49] = biological target: looped/cyclic peptide … (rabies virus strain ERA); remark: listed apart in the source
[50] = biological target: looped/cyclic peptide … (rabies virus strain ERA); remark: listed apart in the source
[51] = biological target: looped/cyclic peptide … (rabies virus strain ERA); remark: listed apart in the source
[52] = biological target: looped/cyclic peptide … (rabies virus strain ERA); remark: listed apart in the source
[53] = biological target: looped/cyclic peptide … (rabies virus strain ERA); remark: listed apart in the source
[54] = biological target: looped/cyclic peptide … (rabies virus strain ERA); remark: listed apart in the source
[55] = biological target: looped/cyclic peptide … (rabies virus strain ERA); remark: listed apart in the source
[56] = biological target: looped/cyclic peptide … (rabies virus strain ERA); remark: listed apart in the source
[57] = biological target: looped/cyclic peptide … (rabies virus strain ERA); remark: listed apart in the source
[58] = biological target: looped/cyclic peptide … (rabies virus strain ERA); remark: listed apart in the source
[59] = biological target: looped/cyclic peptide … (rabies virus strain ERA); remark: listed apart in the source
[60] = biological target: looped/cyclic peptide … (rabies virus strain ERA); remark: listed apart in the source
[61] = biological target: looped/cyclic peptide … (rabies virus strain ERA); remark: listed apart in the source

B1: human monoclonal antibody CRJB (antibody, V domains shown)
VH: QITLKETGPTLVKPTQTLTLTCTFSGFSLSTSGVGVGWIRQPPGKALEWVTLIYWDDDKRYSPSLENRVTIRKDTSKNQVALTMTNMDPLDTGTYYCAHRQHISSFPWFDSWGQGTLVTVSS
VL: SYVLTQPPSVSVAPGKTARINCGGNNIEYRSVHWYQQKSGQAPVAVIYDNSDRPSGIPERFSGSKSGNTATLTISRVEAGDEADYYCQVWDISSDVVFGGGTKLTVLG
In the case of B1, the OD [1] is reported as 91 OD, the OD [2] is reported as 85 OD and the OD [3] is reported as 100 OD. The OD [4] was 92 OD, the OD [5] was 118 OD and the OD [6] was 83 OD. It also gave an OD [7] of 104 OD, an OD [8] of 99 OD and an OD [9] of 96 OD. The OD [10] was 80 OD, the OD [11] was 105 OD and the OD [12] was 72 OD. For the same binder, the OD [13] was 147 OD, the OD [14] was 110 OD and the OD [15] was 101 OD. The OD [16] was 93 OD, the OD [17] was 92 OD and the OD [18] was 94 OD. For the same binder, the OD [19] was 104 OD, the OD [20] was 107 OD and the OD [21] was 83 OD. For the same binder, the OD [22] was 83 OD, the OD [23] was 82 OD and the OD [24] was 129 OD. For the same binder, the OD [25] was 90 OD, the OD [26] was 93 OD and the OD [27] was 90 OD. It also gave an OD [28] of 93 OD, an OD [29] of 100 OD and an OD [30] of 129 OD. It also gave an OD [31] of 97 OD, an OD [32] of 78 OD and an OD [33] of 76 OD. It also gave an OD [34] of 92 OD, an OD [35] of 78 OD and an OD [36] of 101 OD. It also gave an OD [37] of 102 OD, an OD [38] of 108 OD and an OD [39] of 76 OD. For the same binder, the OD [40] was 82 OD, the OD [41] was 97 OD and the OD [42] was 93 OD. For the same binder, the OD [43] was 71 OD, the OD [44] was 104 OD and the OD [45] was 90 OD. It also gave an OD [46] of 106 OD, an OD [47] of 106 OD and an OD [48] of 71 OD. It also gave an OD [49] of 93 OD, an OD [50] of 103 OD and an OD [51] of 79 OD. For the same binder, the OD [52] was 85 OD, the OD [53] was 100 OD and the OD [54] was 90 OD. The OD [55] was 123 OD, the OD [56] was 80 OD and the OD [57] was 102 OD. For the same binder, the OD [58] was 97 OD, the OD [59] was 100 OD and the OD [60] was 101 OD. The OD [61] was 105 OD.
